We go through 1 molecule from patent US20210230265A1 (Sanofi, published 2021).

In the experiment the target is T1, interleukin-33 (IL-33) (human, UniProt O95760 95-270, limits assumed).
T1 construct: This is endogenous circulating IL-33 in treated patients, not a recombinant construct; also called total IL-33
T1 sequence (looked up): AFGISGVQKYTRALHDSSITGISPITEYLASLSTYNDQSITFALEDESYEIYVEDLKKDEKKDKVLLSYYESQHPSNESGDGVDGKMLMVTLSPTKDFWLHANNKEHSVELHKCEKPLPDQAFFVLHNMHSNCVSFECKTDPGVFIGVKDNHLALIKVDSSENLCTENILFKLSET
Nature of the experiment: Target mediated drug disposition (TMDD) model of total IL-33 vs. time in serum, driven by PopPK-predicted PK, all studies; an in vivo model estimate, not a direct binding assay; in vivo TMDD model estimate from clinical total IL-33 data, not a direct binding assay. How it is done: Total TL-33 vs. time was modelled using a target mediated drug disposition (TMDD) approach. All studies were included in the analysis. PopPK predicted PK for each individual was used to drive the total IL-33 dynamics. […] (This was based on the baseline IL-33 assumption of ½ lower limit of quantification (LLOQ).) Based on the computed threshold, 300 mg Q2W, 300 mg Q4W, and 300 mg Q8W may be able to meet the threshold target for achieving 90% target engagement.

B1: SAR440340 (antibody, human IgG4 S228P, kappa, V domains shown)
VH: VQLVESGGNLEQPGGSLRLSCTASGFTFSRSAMNWVRRAPGKGLEWVSGISGSGGRTYYADSVKGRFTISRDNSKNTLYLQMNSLSAEDTAAYYCAKDSYTTSWYGGMDVWGHGTTVTVSS
VL: IQMTQSPSSVSASVGDRVTITCRASQGIFSWLAWYQQKPGKAPKLLIYAASSLQSGVPSRFSGSGSGTDFTLTISSLQPEDFAIYYCQQANSVPITFGQGTRLEIKR
notes: Human anti-IL-33 antibody; also called REGN3500; itepekimab
As for B1, the equilibrium dissociation constant (Kd) (commonly a measure of binding affinity in units of concentration) was 7.01 nM.
